Legend:
[1] = test system: P00451; test: AUC; sedimentation velocity, 105,000 g, 20 C, A280; Helixate desalted into HBS/Ca/PS-80, treated 10 min with 80 uM ClO- or control buffer, exchanged into HBS/Ca/PS-80; c(s) 0-100 S; aggregates 12-100 S relative to 5-100 S
[2] = test system: P00451; test: AUC; sedimentation velocity, 105,000 g, 20 C, A280; Helixate in 2x formulation buffer treated with 80 uM ClO- or control buffer, then buffer exchange on a desalting column; c(s) 0-100 S; aggregates 12-100 S relative to 5-100 S
[3] = test system: P00451; test: AUC; sedimentation velocity, 105,000 g, 20 C, A280; Helixate in its therapeutic formulation buffer; c(s) 0-200 S; aggregates integrated 15-100 S
[4] = test system: P00451; test: AUC; sedimentation velocity, 105,000 g, 20 C, A280; Helixate exchanged into HBS/Ca/PS-80 and immediately run; c(s) 0-200 S; aggregates integrated 12-100 S

Substance	percent of signal in aggregates (12-100 S relative to 5-100 S) [1]	percent of signal in aggregates (12-100 S relative to 5-100 S) [2]	percent of signal in aggregates (15-100 S) [3]	percent of signal in aggregates (12-100 S) [4]
Helixate FS (recombinant full-length factor VIII) oxidized with 80 uM ClO-	13.4 and 13.3% of the signal	14.5 and 9.2%		
Helixate FS (recombinant full-length factor VIII), non-oxidized	13.4 and 13.3% of the signal	14.5 and 9.2%	18.9% and 15.9%	18.9% and 15.9%
